Measurements reported in doi:10.1101/2021.12.01.470822 (bioRxiv, 2021).
Like-named read-outs stand apart in the source and are kept apart here.

B1: ABD1 of PLS2 (domain or fragment)
chain: EGICAIGGTSEQSSVGTQHSYSEEEKYAFVNWINKALENDPDCRHVIPMNPNTNDLFNAVGDGIVLCKMINLSVPDTIDERTINKKKLTPFTIQENLNLALNSASAIGCHVVNIGAEDLKEGKPYLVLGLLWQVIKIGLFADIELSRNEALIALLREGESLEDLMKLSPEELLLRWANYHLENAGCNKIGNFSTDIKDSKAYYHLLEQVAPKGDEEGVPAVVIDMSGLREKDDIQRAECMLQQAERLGCRQFVTATDVVRGNPKLNLAFIANLFNRYP

Legend:
[1] = biological target: T1, F-actin (skeletal muscle actin) ( (rabbit or chicken skeletal …, UniProt P68135 1-377)); experiment: co-sedimentation
[2] = biological target: T2, RD-ABD1 of PLS2 (human, UniProt P13796 1-375); experiment: fluorescence polarisation
T2 sequence: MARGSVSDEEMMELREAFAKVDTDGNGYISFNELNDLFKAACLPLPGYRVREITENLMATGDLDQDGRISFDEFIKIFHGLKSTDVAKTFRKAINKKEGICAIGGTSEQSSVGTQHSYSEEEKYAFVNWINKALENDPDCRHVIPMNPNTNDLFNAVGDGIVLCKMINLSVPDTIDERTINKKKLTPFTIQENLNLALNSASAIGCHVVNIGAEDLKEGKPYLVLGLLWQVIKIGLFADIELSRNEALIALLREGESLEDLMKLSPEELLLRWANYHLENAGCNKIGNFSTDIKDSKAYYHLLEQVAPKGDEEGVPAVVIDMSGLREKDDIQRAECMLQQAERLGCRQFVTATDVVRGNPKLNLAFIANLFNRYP

[3] = biological target: T1, F-actin (skeletal muscle actin); experiment: fluorescence polarisation
[4] = biological target: T2, RD-ABD1 of PLS2; experiment: fluorescence polarisation; remark: listed apart in the source
[5] = biological target: B1; experiment: fluorescence polarisation
[6] = biological target: T1, F-actin (skeletal muscle actin); experiment: fluorescence polarisation; remark: listed apart in the source

B1
Kd [1]: 2600 ± 1000 nM

B2: full-length PLS2 (plastin 2), wild type (natural protein)
chain: MARGSVSDEEMMELREAFAKVDTDGNGYISFNELNDLFKAACLPLPGYRVREITENLMATGDLDQDGRISFDEFIKIFHGLKSTDVAKTFRKAINKKEGICAIGGTSEQSSVGTQHSYSEEEKYAFVNWINKALENDPDCRHVIPMNPNTNDLFNAVGDGIVLCKMINLSVPDTIDERTINKKKLTPFTIQENLNLALNSASAIGCHVVNIGAEDLKEGKPYLVLGLLWQVIKIGLFADIELSRNEALIALLREGESLEDLMKLSPEELLLRWANYHLENAGCNKIGNFSTDIKDSKAYYHLLEQVAPKGDEEGVPAVVIDMSGLREKDDIQRAECMLQQAERLGCRQFVTATDVVRGNPKLNLAFIANLFNRYPALHKPENQDIDWGALEGETREERTFRNWMNSLGVNPRVNHLYSDLSDALVIFQLYEKIKVPVDWNRVNKPPYPKLGGNMKKLENCNYAVELGKNQAKFSLVGIGGQDLNEGNRTLTLALIWQLMRRYTLNILEEIGGGQKVNDDIIVNWVNETLREAKKSSSISSFKDPKISTSLPVLDLIDAIQPGSINYDLLKTENLNDDEKLNNAKYAISMARKIGARVYALPEDLVEVNPKMVMTVFACLMGKGMKRV
Kd [1]: 5700 ± 1000 nM

B3: ABD2 of PLS2, unlabeled (domain or fragment)
chain: DIDWGALEGETREERTFRNWMNSLGVNPRVNHLYSDLSDALVIFQLYEKIKVPVDWNRVNKPPYPKLGGNMKKLENCNYAVELGKNQAKFSLVGIGGQDLNEGNRTLTLALIWQLMRRYTLNILEEIGGGQKVNDDIIVNWVNETLREAKKSSSISSFKDPKISTSLPVLDLIDAIQPGSINYDLLKTENLNDDEKLNNAKYAISMARKIGARVYALPEDLVEVNPKMVMTVFACLMGKGMKRV
Kd [2]: 2.9 ± 0.5 nM | Kd [3]: 3.6 ± 0.3 nM | Kd [4]: 3 ± 0.9 nM | Kd [5]: 11.4 ± 0.7 nM

B4: fluorescein-labeled ABD2 of PLS2 (domain or fragment)
chain: DIDWGALEGETREERTFRNWMNSLGVNPRVNHLYSDLSDALVIFQLYEKIKVPVDWNRVNKPPYPKLGGNMKKLENCNYAVELGKNQAKFSLVGIGGQDLNEGNRTLTLALIWQLMRRYTLNILEEIGGGQKVNDDIIVNWVNETLREAKKSSSISSFKDPKISTSLPVLDLIDAIQPGSINYDLLKTENLNDDEKLNNAKYAISMARKIGARVYALPEDLVEVNPKMVMTVFACLMGKGMKRV
modifications: fluorescein-5-maleimide (FM) label
Kd [6]: 9.9 ± 3.7 nM
